± gives the uncertainty stated by the source.
Experiment: self-splicing fitness, log relative to wild type (ln ratio); higher = more splicing; Tetrahymena group I intron in knt gene, E. coli kanamycin selection, DiMSum; sequences stand for … in CUCUCU…GGAGGGAAAAGUUAUCAGGCAUGCACCUGGUAGCUAGUCUUUAAACCAAUAGAUUGCAUCGGUUUAAAAGGCAAGACCGUCAAAUUGCGGGAAAGGGGUCAACAGCCGUUCAGUACCAAGUCUCAGGGGAAACUUUGAGAUGGCCUUGCAAAGGGUAUGGUAAUAAGCUGACGGACAUGGUCCUAACCACGCAGCCAAGUCCUAAGUCAACAGAUCUUCUGUUGAUAUGGAUGCAGUUCACAGACUAAAUGUCGGUCGGGGAAGAUGUAUUCUUCUCAUAAGAUAUAGUCGGACCUCUCCUUAAUGGGAGCUAGCGGAUGAAGUGAUGCAACACUGGAGCCGCUGGGAACUAAUUUGUAUGCGAAAGUAUAUUGAUUAGUUUUGGAGUACUCGUGGUCG
How it was run: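 Six replicate transformations of E. coli BL21(DE3) with a pET-22b(+) library were grown overnight at 37°C or 30°C. The library randomised all eight P1ex-region intron nucleotides, the intron lying in the knt kanamycin-resistance gene, and plates were LB agar with or without 25 μg/mL kanamycin plus 100 μg/mL carbenicillin, 50 μM IPTG and 0.2% rhamnose. Pooled colonies were amplicon-sequenced on an Illumina HiSeq 2500, and fitness is the DiMSum error-weighted combination of wild-type-normalised replicate fold changes, kanamycin versus none.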

Sequence	self-splicing fitness (ln) (30 °C)	self-splicing fitness (ln) (37 °C)
GAAAAGCAAUAUUACGUCCA	-0.703 ± 0.064	0.0901 ± 0.089
GAAAAGCAAUAUUACGUCCC	-0.229 ± 0.17	0.0916 ± 0.2
GAAAAGCAAUAUUACGUGAC	-4.06 ± 0.34	-1.17 ± 0.17
GAAAAGCAAUAUUACGUUAG	-2.27 ± 0.12	-1.85 ± 0.14
GAACAGCAAUAUUACGAUAU	-1.36 ± 0.061	-0.525 ± 0.074
GAACAGCAAUAUUACGAUCA	-0.605 ± 0.089	-0.214 ± 0.11
GAACAGCAAUAUUACGAUUA	-0.501 ± 0.11	-0.296 ± 0.098
GAACAGCAAUAUUACGCACG	-1.38 ± 0.18	0.123 ± 0.13
GAACAGCAAUAUUACGCACU	0.254 ± 0.079	0.0329 ± 0.11
GAACAGCAAUAUUACGCCCA	0.617 ± 0.17	-0.316 ± 0.24
GAACAGCAAUAUUACGCCGC		-2.35 ± 0.34
GAACAGCAAUAUUACGCCUC	-1.81 ± 0.17	-1.89 ± 0.26
GAACAGCAAUAUUACGCGUU	-3.27 ± 0.12	-2.69 ± 0.14
GAACAGCAAUAUUACGCUCG	-0.797 ± 0.1	-0.128 ± 0.15
GAACAGCAAUAUUACGGACA	-1.3 ± 0.1	-0.732 ± 0.09
GAACAGCAAUAUUACGGACC	-0.915 ± 0.12	0.0387 ± 0.14
GAACAGCAAUAUUACGGGGA	-1.6 ± 0.087	-0.774 ± 0.09
GAACAGCAAUAUUACGGGUC	-2.3 ± 0.19	-3 ± 0.27
GAACAGCAAUAUUACGGUCG	-1.17 ± 0.069	-0.372 ± 0.098
GAACAGCAAUAUUACGGUCU	-1.16 ± 0.086	-0.205 ± 0.095

Sequence	self-splicing fitness (ln) (30 °C)	self-splicing fitness (ln) (37 °C)
GAACAGCAAUAUUACGUCUG	-2.54 ± 0.079	-0.775 ± 0.077
GAACAGCAAUAUUACGUGAA	-0.968 ± 0.061	-0.396 ± 0.069
GAACAGCAAUAUUACGUUUG	-2.2 ± 0.067	-0.632 ± 0.075
GAAGAGCAAUAUUACGAAUU	-3.24 ± 0.18	-2.21 ± 0.23
GAAGAGCAAUAUUACGACCU	-1.45 ± 0.13	-0.296 ± 0.18
GAAGAGCAAUAUUACGACUU	-0.765 ± 0.12	0.131 ± 0.14
GAAGAGCAAUAUUACGAGCC	-1.61 ± 0.24	-0.252 ± 0.36
GAAGAGCAAUAUUACGAUAC	-2.75 ± 0.39	
GAAGAGCAAUAUUACGAUGA	-3.03 ± 0.31	-1.57 ± 0.17
GAAGAGCAAUAUUACGCACA	-1.91 ± 0.16	-1.07 ± 0.14
GAAGAGCAAUAUUACGCAUU	-4.28 ± 0.2	-2.2 ± 0.2
GAAGAGCAAUAUUACGCCGC	-2.05 ± 0.47	
GAAGAGCAAUAUUACGGACC	-1.57 ± 0.14	-0.884 ± 0.19
GAAGAGCAAUAUUACGGGAA	-3.54 ± 0.47	-1.72 ± 0.28
GAAGAGCAAUAUUACGGGGC	-3.46 ± 0.28	-2.28 ± 0.26
GAAGAGCAAUAUUACGGGUC	-1.86 ± 0.27	
GAAGAGCAAUAUUACGGGUU	-3.11 ± 0.2	-2.22 ± 0.2
GAAGAGCAAUAUUACGGUAA	-2.16 ± 0.29	-1.01 ± 0.24
GAAGAGCAAUAUUACGGUAG	-3.51 ± 0.17	-3.01 ± 0.22

Reference: the supplement of paper PMC7877785
